Laboratory results taken from article PMC7040040 (2020).
Non-standard residues stand in square brackets, D forms with d. No end group written: not given here. pGlu = O=C1CC[C@@H](C(=O)O)N1

Legend:
[1] = target: T1, PBD-C06 (final humanized, de-immunized antibody with the complement mutation K322A) (human); assay: SPR
[2] = target: T1, PBD-C06 (final humanized, de-immunized …); assay: SPR; remark: listed apart in the source

T1 sequence (chain, as listed by the source K322A, chain 1 of 2): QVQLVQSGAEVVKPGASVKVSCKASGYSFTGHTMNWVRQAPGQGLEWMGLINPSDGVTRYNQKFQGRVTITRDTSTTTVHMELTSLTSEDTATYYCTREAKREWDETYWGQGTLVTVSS
T1 sequence (chain, as listed by the source K322A, chain 2 of 2): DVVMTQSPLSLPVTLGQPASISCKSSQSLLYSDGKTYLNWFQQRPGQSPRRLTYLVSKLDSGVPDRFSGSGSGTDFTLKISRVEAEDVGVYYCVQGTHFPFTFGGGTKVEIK

koff [1] [s⁻¹]	Kd [2] [nM]	Binder
0.00393	7.86	[pGlu]FRHDSGYEVHHQKLV [pE3-Aβ(3–18) monomer]
	> 50000	FRHDSGYEVHHQKLV [Aβ(4–18) monomer]
